Test results from article PMC10683472, “Deep Learning-Driven Library Design for the De Novo Discovery of Bioactive Thiopeptides” (ACS Central Science, 2023).
Where no end group is shown, it is not given here. pyridine‑bisazole = not defined here

Molecular target: T1, toll-like receptor 10, extracellular domain (UniProt Q9BXR5 20-576)
T1 construct: toll-like receptor 10 (TLR10), extracellular domain; The extracellular domain is stated for the SPR experiment; also called TLR10; TLR10 cell surface receptor
T1 sequence (looked up): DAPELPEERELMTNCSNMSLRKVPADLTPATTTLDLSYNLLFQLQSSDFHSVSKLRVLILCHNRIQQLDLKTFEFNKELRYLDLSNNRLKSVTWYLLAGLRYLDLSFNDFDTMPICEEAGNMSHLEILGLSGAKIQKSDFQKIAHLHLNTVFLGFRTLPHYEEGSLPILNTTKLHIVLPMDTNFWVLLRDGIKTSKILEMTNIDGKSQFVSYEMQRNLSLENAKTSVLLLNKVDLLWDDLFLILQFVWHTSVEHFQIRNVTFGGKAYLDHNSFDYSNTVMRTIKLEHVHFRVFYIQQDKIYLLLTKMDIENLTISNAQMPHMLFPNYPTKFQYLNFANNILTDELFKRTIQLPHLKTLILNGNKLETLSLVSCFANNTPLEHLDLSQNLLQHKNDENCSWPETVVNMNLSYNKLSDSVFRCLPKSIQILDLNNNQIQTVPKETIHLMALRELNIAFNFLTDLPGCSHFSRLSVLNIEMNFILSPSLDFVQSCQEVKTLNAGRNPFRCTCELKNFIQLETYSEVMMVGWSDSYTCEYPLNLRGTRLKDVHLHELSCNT
Assay: SPR; synthetic thiopeptides and target protein; conditions in S.I. 2.10 (not shown)
Details: both partners purified

B1: thiopeptide TL20 (synthetic) (peptide)
chain: SWSLELSRVNVVIHSCSC
modifications: bridge (positions not given here) via pyridine‑bisazole; reading uncertain; also: macrocyclic lactazole-like thiopeptide with pyridine-bisazole moiety, places not given here, dehydroamino acids, places not given here
Question: How did the Kd turn out when B1 was run?
Answer: 300 nM
